Earlier results on one substance are cited in patent publication US20020188108.

This series concerns the target T1, IF3-His6 (translation initiation factor 3) (Escherichia coli) (UniProt P0A707).
T1 sequence: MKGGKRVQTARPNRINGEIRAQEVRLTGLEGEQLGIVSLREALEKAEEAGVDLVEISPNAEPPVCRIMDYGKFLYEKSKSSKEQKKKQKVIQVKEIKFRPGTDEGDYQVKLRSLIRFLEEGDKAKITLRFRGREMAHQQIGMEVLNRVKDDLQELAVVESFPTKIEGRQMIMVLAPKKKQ
Conditions: CITED Tapprich et al. 1989.

With 16S rRNA G791A in 30S subunit, the binding signal (fold reduction) was 10.
